Measurements taken from publication PMC12866682 (2025).

T1: Purified human MPO (human, UniProt P05164 49-745)
T1 chain: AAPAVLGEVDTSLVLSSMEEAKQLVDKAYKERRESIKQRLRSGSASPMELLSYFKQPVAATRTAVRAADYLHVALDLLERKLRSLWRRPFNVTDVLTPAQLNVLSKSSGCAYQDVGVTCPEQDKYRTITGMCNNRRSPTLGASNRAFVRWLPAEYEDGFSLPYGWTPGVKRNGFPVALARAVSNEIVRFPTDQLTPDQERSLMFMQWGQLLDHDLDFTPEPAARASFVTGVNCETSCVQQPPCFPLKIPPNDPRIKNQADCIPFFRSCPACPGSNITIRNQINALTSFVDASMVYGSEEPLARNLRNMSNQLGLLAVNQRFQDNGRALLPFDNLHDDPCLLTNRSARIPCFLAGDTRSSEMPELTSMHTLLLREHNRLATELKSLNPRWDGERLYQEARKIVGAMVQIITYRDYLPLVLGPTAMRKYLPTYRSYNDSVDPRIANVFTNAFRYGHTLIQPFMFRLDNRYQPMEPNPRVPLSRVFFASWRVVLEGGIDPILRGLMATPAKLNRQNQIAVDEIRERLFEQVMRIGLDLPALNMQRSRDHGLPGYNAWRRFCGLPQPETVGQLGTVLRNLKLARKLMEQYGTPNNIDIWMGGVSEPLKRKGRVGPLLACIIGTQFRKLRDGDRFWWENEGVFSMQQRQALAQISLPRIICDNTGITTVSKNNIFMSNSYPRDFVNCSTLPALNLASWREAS


Key:
T96K TREM2 protein = T96K TREM2 protein (UniProt Q9NZC2); experiment: solid-phase binding (SPB) assay; WT, R47H or T96K TREM2 immobilised, MPO in solution (n=5); method not described in the text shown
Purified human MPO = molecular target: T1, Purified human MPO; experiment: SPR

Molecule	fold affinity over the WT or R47H TREM2 protein (T96K TREM2 protein)	Kd (Purified human MPO)
Purified human MPO (from UniProt P05164 49-745) (ligand)	1.3 fold	–
Purified human TREM2 protein (receptor) HNTTVFQGVAGQSLQVSCPYDSMKHWGRRKAWCRQLGEKGPCQRVVSTHNLWLLSFLRRWNGSTAITDDTLGGTLTITLRNLQPHDAGLYQCQSLHGSEADTLRKVLVEVLADPLDHRDAGDLWFPGESESFEDAHVEHSISRSLLEGEIPFPPTSILLLLACIFLIKILAASALWAAAWHGQKPGTHPPSELDCGHDPGYQLQTLPGLRDT	–	551 nM
